These are literature values, as cited in patent US20110212858A1, “SYNTHETIC POLY D/L LYSINE FOR CONTROL OF DIRECTION AND RATE OF NEURITE GROWTH AND REGENERATION” (CHILDRENS HOSPITAL LOS ANGELES, priority 2008, published 2011).

For this data set the following is noted: requires storage at −80° C.

Take laminin: the shelf life entry is “limited shelf life”.
